The record followed here is US20220177583A1.

The chains are these.
B1: AB9-chim (antibody, V domains shown)
VH: EVQLQQSGPELVKPGASVKMSCKASGYRFTDYNMHWVKQSHGKSLEWIGYINPNNGGTNYNQNFKGKATLTVNKSSSTAYMELRSLTSEDSAAYYCARDYLYFFDCWGQGTTLTVSS
VL: DIQMTQSPASQSASLGESVTITCLASQTIGTWLAWYQQKPGKSPQLLIYAAASLADGVPSRFSGSGSGTRFSFKISSLQAEDFVSYYCQQLYSIPRTFGGGTKLEIK
B2: AB18-4 (antibody, V domains shown)
VH: QVQLVQSGAEVKKPGASVKVSCKASGYSFTGYNMNWVRQAPGQGLEWMGNIDPYYGGSTYAQKFQGRVTMTVDTSTSTVYMELSSLRSEDTAVYYCARERSGYVFSAMDYWGQGTLVTVSS
VL: DIVMTQSPDSLAVSLGERVTMNCKSSQSVLFSSNQKNYLAWYQQKPGQPPKLLIYWASTRESGVPDRFSGSGSGTDFTLTISSVQAEDVAVYYCHQYLSSRTFGQGTKLEIK
B3: AB18-6 (antibody, V domains shown)
VH: B2 VH with V20I, M48I, V68A, M70L, V79A
VL: B2 VL
B4: AB18-chim (antibody, V domains shown)
VH: QVQLKQSGPELEKPGASVKISCKASGYSFTGYNMNWVKQSNGKSLEWIGNIDPYYGGSTYNQKFTGKATLTVDKSSSTAYMQLKSLTSEDSAVYYCARERSGYVFSAMDYWGQGTSVTVSS
VL: NIMMTQSPSSLAVSAGEKVTMSCKSSQSVLFSSNQKNYLAWYQQKPGQSPRLLIYWASTRESGVPDRFTGSGSGTDFTLTISNVQAEDLAVYYCHQYLSSRTFGAGTKLELK
B5: AB11-2 (antibody, V domains shown)
VH: EVQLVESGGGLVQPGGSLRLSCAASGFTFSSFGMHWVRQAPGKGLEWVAYISSDSRTIYYADSVKGRFTISRDNAKNSLYLQMNSLRAEDTAVYYCARDYGRTYEAYWGQGTLVTVSS
VL: DIVMTQSPDSLAVSLGERATINCRASKSVSTSGYSYIHWYQQKPGQPPKLLIYLASNLESGVPDRFSGSGSGTDFTLTISSLQAEDVAVYYCQHSRELPLTFGQGTKLEIK
B6: AB11-3 (antibody, V domains shown)
VH: B5 VH
VL: B5 VL with M4L, L82V, I110L
B7: AB9-3 (antibody, V domains shown)
VH: QVQLVQSGAEVKKPGASVKMSCKASGYRFTDYNMHWVRQAPGQGLEWIGYINPNNGGTNYAQKFQGRATLTVDTSTSTAYMELSSLRSEDTAVYYCARDYLYFFDCWGQGTLLTVSS
VL: DIQMTQSPSSLSASVGDRVTITCLASQTIGTWLAWYQQKPGKAPKLLIYAAASLADGVPSRFSGSGSGTDFTFTISSLQPEDFVTYYCQQLYSIPRTFGQGTKLEIK
B8: AB9-4 (antibody, V domains shown)
VH: B7 VH
VL: B7 VL with L24R
B9: AB11-chim (antibody, V domains shown)
VH: DVQLVESGGGLVQPRGSRKLSCAASGFTFSSFGMHWVRQAPEKGLEWVAYISSDSRTIYYADTVKGRFTISRDNPTNTLFLQMTSLRSEDTAMYYCARDYGRTYEAYWGQGTLVTVSA
VL: DIVLTQSPASLAVSLGQRATISCRASKSVSTSGYSYIHWYQQKPGQPPKLLIYLASNLESGVPARFSGSGSGTDFTLNIHPVEEEDAATYYCQHSRELPLTFGAGTKLELK
B10: AB4-9 (antibody, V domains shown)
VH: QVQLVQSGAEVKKPGASVKMSCKASGYTFTSYTMHWIRQAPGQGLEWIGYINPSSTYTHYIKKFKDRATLTADTSTSTAYMELSSLRSEDTAVYYCSRGELGGFAYWGQGTLVTVSS
VL: DVVMTQSPLSLPVTLGQPASISCRSSQSLVHSDGNTYLNWYQQRPGQSPRLLIYKVSNRFSGVPDRFSGSGSGTDFTLKISRVEAEDVGVYYCSQSTHVPYTFGQGTKLEIK
B11: AB4-11 (antibody, V domains shown)
VH: B10 VH with T74K
VL: B10 VL
B12: AB4-12 (antibody, V domains shown)
VH: B10 VH with L45Q, T74K
VL: B10 VL
B13: AB4-10 (antibody, V domains shown)
VH: B10 VH with L45Q
VL: B10 VL
B14: AB3 (antibody, V domains shown)
VH: EVKLEESGGGLVQPGGSMKLSCVASGFTFSNYWMNWVRQSPEKGLEWVAQIRLKSDNYATHYAESVKGRFTISRDDSKRSVYLQMNNLRAEDTGTYYCNDGPPSGCWGQGTTLIVSS
VL: DIQMTQSPASLSASVGETVTITCRISENIYSYLAWYQQKQGKSPQLLVYNAKILVEGVPSRFSGSGSGTQFSLKINSLQPEDFGNYYCQHHYTVPWTFGGGTKLEIK
B15: AB2 (antibody, V domains shown)
VH: B14 VH with N31D
VL: B14 VL
B16: AB1 (antibody, V domains shown)
VH: QVQLQQSAAELARPGASVKMSCKASGYTFTTYTMHWVKQRPGQGLEWIGFINPSSGYTDYNQKFKDRTTLTADKSSSTVYMQLSSLTSEDSAVYYCANGDYYVAYWGQGTLVTVSA
VL: QIVLTQSPAIMSASLGERVTMTCTASSSVSSTYFHWYQQKPGSSPKLWIYSTSNLASGVPRRFSGSASGTSYSLTISSMEAEDAATYYCHQYHRSPLTFGAGTKLELK
B17: AB4 (antibody, V domains shown)
VH: QVQLQQSGAELARPGASVKMSCKASGYTFTSYTMHWIKQRPGQGQEWIGYINPSSTYTHYIKKFKDKATLTADKSSSTAYMQLRSLTSEDSAVYYCSRGELGGFAYWGQGTLVTVSA
VL: DVVMTQTPLSLPVSLGDQASISCRSSQSLVHSDGNTYLNWYLQKPGQSPKLLIYKVSNRFSGVPDRFSGSGSGTDFTLKIRRVEAEDLGVYFCSQSTHVPYTFGGGTKLEIK

Substitutions are numbered along the chain they refer to.

The first assay deals with human CLDN6 fused to GFP, expressed on engineered HEK293T cells (human) (UniProt P56747). Description: FACS, 293T clone with human CLDN6, 1.5 ug Ab.
Take B1: the FACS signal turned out to be 72000.

In the case of B2, the FACS signal was 54400.

B3 came in with an FACS signal of 58500.

Molecule B4 had an FACS signal of 135000.

Regarding B5, the FACS signal was 2560.

As for B6, the FACS signal amounted to 2360.

Consider B7, for which the FACS signal came out at 24600.

Regarding B8, the FACS signal is 34300.

B9 displayed an FACS signal of 3490.

Molecule B10 gave an FACS signal of 56900.

On to B11, for which the FACS signal was 61200.

For B12, the FACS signal was determined as 86200.

B13 yielded an FACS signal of 77200.

The next assay has the same target. Nature of the assay: FACS, 293T clone with human CLDN6, 0.3 ug Ab. (In general: Flow cytometry measures light scatter and fluorescence of single cells or particles in a stream.)
As to B1, the FACS signal was determined as 46700.

Regarding B2, the FACS signal amounted to 32400.

Molecule B3 displayed an FACS signal of 26900.

Regarding B4, the FACS signal was 73800.

In turn, B5 returned an FACS signal of 1290.

With B6, the FACS signal amounted to 1010.

Take B7: the FACS signal came out at 9500.

In the case of B8, the FACS signal is 15300.

As for B9, the FACS signal worked out at 1670.

Regarding B10, the FACS signal stood at 37200.

B11 showed an FACS signal of 37800.

Turning to B12, the FACS signal stood at 71100.

In the case of B13, the FACS signal amounted to 50800.

The target is the same in a further assay. Description: FACS dose curve, labelled mAb, HEK293T-CLDN6-mGFP cells.
A word on the EC50: it is the concentration needed to bring the measured effect to its halfway point. High values mean a need for much substance, low ones an effect from little substance. In the case of B14, the half-maximal effective concentration (EC50) worked out at 604 nM.

B15 displayed an EC50 of 182 nM.

B16 came in with a 50% effective concentration (EC50) of 109 nM.

On to B17, for which the 50% effective concentration (EC50) is 17 nM.

A further assay deals with CLDN3/4 endogenously expressed on LS513 and MCF7 cells. Nature of the assay: FACS dose curve, labelled mAb, MCF7 cells.
B14 yielded a concentration giving a half-maximal response (EC50) of 5000 nM.

Molecule B15 registered a 50% effective concentration (EC50) of 5000 nM.

In the case of B16, the 50% effective concentration (EC50) came to 5000 nM.

On to B17, for which the 50% effective concentration (EC50) came to 653 nM.

For another assay the target is unchanged. Description: FACS dose curve, labelled mAb, LS513 cells.
The molecule B14 displayed an EC50 of 5000 nM.

B15 returned an EC50 of 5000 nM.

As for B16, the half-maximal effective concentration (EC50) was found to be 5000 nM.

In the case of B17, the EC50 was 730 nM.
